Holding throughout (experiment): cell-based or functional assay
Assay [1] addresses purified Sp1 (Promega Corp.) (UniProt P08047).
Assay [2] has as its target Sp1 in human brain tissue (endogenous) (human) (UniProt P08047).
For assay [3], the target named is Sp1 in nuclear extracts of primary rat striatal neurons (endogenous) (rat) (UniProt Q01714).
Sp1 in nuclear extracts of primary rat striatal neurons (endogenous) (rat), sequence (Q01714 2-786 limits assumed): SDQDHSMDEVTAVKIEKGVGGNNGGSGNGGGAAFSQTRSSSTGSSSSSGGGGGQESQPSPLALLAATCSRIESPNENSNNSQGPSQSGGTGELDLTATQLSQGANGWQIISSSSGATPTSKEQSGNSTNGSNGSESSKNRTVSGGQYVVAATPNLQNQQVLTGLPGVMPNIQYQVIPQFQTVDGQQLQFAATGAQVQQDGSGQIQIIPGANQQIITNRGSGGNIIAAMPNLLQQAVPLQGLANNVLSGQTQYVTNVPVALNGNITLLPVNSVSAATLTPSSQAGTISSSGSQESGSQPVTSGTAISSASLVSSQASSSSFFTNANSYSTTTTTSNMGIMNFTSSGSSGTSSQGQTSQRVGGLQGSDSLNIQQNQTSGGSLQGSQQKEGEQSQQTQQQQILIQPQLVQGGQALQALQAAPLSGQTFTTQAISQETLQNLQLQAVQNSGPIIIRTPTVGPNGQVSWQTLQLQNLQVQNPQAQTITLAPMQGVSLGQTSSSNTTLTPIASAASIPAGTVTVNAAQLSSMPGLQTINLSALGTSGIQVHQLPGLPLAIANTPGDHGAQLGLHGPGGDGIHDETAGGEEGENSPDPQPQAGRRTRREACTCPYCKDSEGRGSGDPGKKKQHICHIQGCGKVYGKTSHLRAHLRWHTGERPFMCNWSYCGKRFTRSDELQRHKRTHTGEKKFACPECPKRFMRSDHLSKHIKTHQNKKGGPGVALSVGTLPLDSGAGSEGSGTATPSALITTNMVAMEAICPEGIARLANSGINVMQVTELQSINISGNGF

purified Sp1 (Promega Corp.), sequence (P08047 8-785 limits assumed): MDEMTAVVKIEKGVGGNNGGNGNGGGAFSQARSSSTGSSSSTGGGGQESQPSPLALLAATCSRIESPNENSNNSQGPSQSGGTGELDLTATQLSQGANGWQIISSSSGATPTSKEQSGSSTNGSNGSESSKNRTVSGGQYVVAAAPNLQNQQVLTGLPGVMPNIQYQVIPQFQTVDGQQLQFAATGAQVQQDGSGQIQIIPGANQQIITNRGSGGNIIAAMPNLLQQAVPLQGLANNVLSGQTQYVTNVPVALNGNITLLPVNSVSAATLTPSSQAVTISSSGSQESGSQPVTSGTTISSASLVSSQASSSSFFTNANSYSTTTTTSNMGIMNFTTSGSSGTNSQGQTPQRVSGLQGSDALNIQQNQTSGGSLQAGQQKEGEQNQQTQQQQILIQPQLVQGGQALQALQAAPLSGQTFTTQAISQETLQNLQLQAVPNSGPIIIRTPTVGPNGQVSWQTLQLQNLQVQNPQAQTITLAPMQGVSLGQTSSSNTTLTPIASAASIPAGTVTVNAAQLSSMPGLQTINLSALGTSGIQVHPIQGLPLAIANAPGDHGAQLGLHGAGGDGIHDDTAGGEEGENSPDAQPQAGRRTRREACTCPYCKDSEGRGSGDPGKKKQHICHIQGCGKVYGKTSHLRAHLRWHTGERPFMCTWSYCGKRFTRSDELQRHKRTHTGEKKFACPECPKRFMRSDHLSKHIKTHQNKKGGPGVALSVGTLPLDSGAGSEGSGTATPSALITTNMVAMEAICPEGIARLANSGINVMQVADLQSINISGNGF
Sp1 in human brain tissue (endogenous) (human), sequence (P08047 2-785 limits assumed): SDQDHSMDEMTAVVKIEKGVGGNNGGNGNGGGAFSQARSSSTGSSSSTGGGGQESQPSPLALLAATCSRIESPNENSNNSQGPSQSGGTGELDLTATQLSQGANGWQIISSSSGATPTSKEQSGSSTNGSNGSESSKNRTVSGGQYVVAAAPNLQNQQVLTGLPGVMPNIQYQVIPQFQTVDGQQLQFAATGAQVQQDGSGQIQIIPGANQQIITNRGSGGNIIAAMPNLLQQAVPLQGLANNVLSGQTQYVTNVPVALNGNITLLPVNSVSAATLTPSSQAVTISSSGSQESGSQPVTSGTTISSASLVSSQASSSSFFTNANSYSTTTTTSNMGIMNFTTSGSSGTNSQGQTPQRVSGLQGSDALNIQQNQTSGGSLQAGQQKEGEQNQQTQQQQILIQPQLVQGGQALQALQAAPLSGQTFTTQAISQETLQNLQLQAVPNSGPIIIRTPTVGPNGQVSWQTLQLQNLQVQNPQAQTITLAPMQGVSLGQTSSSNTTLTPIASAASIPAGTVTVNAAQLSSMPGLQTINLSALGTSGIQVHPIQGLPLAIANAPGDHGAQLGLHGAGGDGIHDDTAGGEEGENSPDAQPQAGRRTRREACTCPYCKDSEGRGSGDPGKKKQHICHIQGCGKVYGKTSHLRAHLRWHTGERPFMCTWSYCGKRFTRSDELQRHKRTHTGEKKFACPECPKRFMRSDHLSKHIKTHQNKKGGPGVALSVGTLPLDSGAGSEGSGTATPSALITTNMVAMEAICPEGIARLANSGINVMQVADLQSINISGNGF

In assay [1], “glutathione S-transferase (GST)-huntingtin fusion protein with 20 glutamines (from UniProt P42858 1-88)” displayed a reduction in Sp1 binding to a labeled consensus Sp1 site (EMSA with purified proteins) of 20%.

In the case of “glutathione S-transferase (GST)-huntingtin fusion protein with 51 glutamines (from UniProt P42858 1-88)”, the inhibition of Sp1 binding to a labeled consensus Sp1 site (EMSA with purified proteins) in assay [1] is 70%.

As for “huntingtin in human HD brain tissue (endogenous) (from UniProt P42858 1-3142)”, in assay [2], the decrease of Sp1 binding to its D2 binding site (EMSA, nuclear extracts of caudate, grade 1 HD brain against control brain) came to 39% and the decrease of Sp1 binding to its D2 binding site (EMSA, nuclear extracts of caudate, grade 4 HD brain against control brain) is 48%.

Take “mutant full-length huntingtin with 75 glutamines (HttQ75), P42858 1-3142”: in assay [3], the inhibition of Sp1 binding to a labeled D2 promoter fragment (EMSA, nuclear extracts of transfected striatal cells) was 55%.

(Values after patent US20040213780A1.)
